Biological target: T1, fluorogenic peptide (MCA)Lys-Lys-Pro-Ala-Glu-Phe-Phe-Ala-Leu-Lys(DNP)
T1 chain: KKPAEFFALK

B1: proCardosinB lacking the PSI region (pCBΔPSI) (protein)
chain: MVSNGGLLRVGLKKRKVDRLDQLRAHGVHMLGNARKDFGFRRTLRDSGSGIVALTNDRDTAYYGEIGIGTPPQNFAVIFDTGSSDLWVPSTKCDTSLACVIHPRYDSGDSSTYKGNGTTASIQYGTGAIVGFYSQDSVEVGDLVVEHQDFIETTEEDDTVFLKSEFDGILGLGFQEISAGKAVPVWYNMVNQGLVEEAVFSFWLNRNVDEEEGGELVFGGVDPNHFRGNHTYVPVTRKGYWQFEMGDVLIGDKSSGFCAGGCAAIADSGTSFFAGPTAIITQINQAIGAKGGGGSAESIVDCNGISSMPNIAFTIGSKLFEVTPEQYIYKVGEGEAATCISGFTALDIMSPQGPIWILGDMFMGPYHTVFDYGKLRVGFAEAV
Km: 8.7 µM
VMax: 2.15e-05 µmol/s
kcat: 36.5 s⁻¹
kcat/Km: 4.2e+06 M⁻¹ s⁻¹

Source: US20160083711
